Data from the supplement of paper PMC5998384.

Legend:
[1] = system: HeLa Kyoto; experiment: solubility in G1/S (NP-40 vs SDS abundance) (log2 ratio); higher = more soluble; conditions: cell cycle stage: G1/S
[2] = system: HeLa Kyoto; experiment: solubility change mitosis vs G1/S (difference of NP-40 vs SDS log2 ratios) (log2 ratio difference); higher = more soluble in mitosis
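Wherever solubility change mitosis vs G1/S (difference of NP-40 vs SDS log2 ratios) is given: synchronized HeLa Kyoto cells (double thymidine block for G1/S, nocodazole release for mitosis), protein amounts in NP-40 versus SDS lysates quantified by mass spectrometry, three biological replicates.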
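Wherever solubility in G1/S (NP-40 vs SDS abundance) is given: HeLa Kyoto cells arrested at G1/S by double thymidine block, proteins quantified by TMT10plex mass spectrometry in mild NP-40 versus SDS extracts, three biological replicates.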

Substance: MWRMRGGATRRGSCCGGDGAADGRGPGRSGRARGGGSPSGGGGGVGWRGRADGARQQLEERFADLAASHLEAIRARDEWDRQNARLRQENARLRLENRRLKRENRSLFRQALRLPGEGGNGTPAEARRVPEEASTNRRARDSGREDEPGSPRALRARLEKLEAMYRRALLQLHLEQRGPRPSGDKEEQPLQEPDSGLRSRDSEPSGPWL [TUSC1]
- solubility in G1/S (log2) [1]: 0.541
- solubility change mitosis (log2) [2]: 0.105

Substance: MWRGRAGALLRVWGFWPTGVPRRRPLSCDAASQAGSNYPRCWNCGGPWGPGREDRFFCPQCRALQAPDPTRDYFSLMDCNRSFRVDTAKLQHRYQQLQRLVHPDFFSQRSQTEKDFSEKHSTLVNDAYKTLLAPLSRGLYLLKLHGIEIPERTDYEMDRQFLIEIMEINEKLAEAESEAAMKEIESIVKAKQKEFTDNVSSAFEQDDFEEAKEILTKMRYFSNIEEKIKLKKIPL [HSCB]
- solubility in G1/S (log2) [1]: 0.296
- solubility change mitosis (log2) [2]: 0.307

Substance: ASNSD1
- solubility in G1/S (log2) [1]: -0.0495
- solubility change mitosis (log2) [2]: 0.0506

Substance: MFPLKDAEMGAFTFFASALPHDVCGSNGLPLTPNSIKILGRFQILKTITHPRLCQYVDISRGKHERLVVVAEHCERSLEDLLRERKPVSCSTVLCIAFEVLQGLQYMNKHGIVHRALSPHNILLDRKGHIKLAKFGLYHMTAHGDDVDFPIGYPSYLAPEVIAQGIFKTTDHMPSKKPLPSGPKSDVWSLGIILFELCVGRKLFQSLDISERLKFLLTLDCVDDTLIVLAEEHGCLDIIKELPETVIDLLNKCLTFHPSKRPTPDQLMKDKVFSEVSPLYTPFTKPASLFSSSLRCADLTLPEDISQLCKDINNDYLAERSIEEVYYLWCLAGGDLEKELVNKEIIRSKPPICTLPNFLFEDGESFGQGRDRSSLLDDTTVTLSLCQLRNRLKDVGGEAFYPLLEDDQSNLPHSNSNNELSAAATLPLIIREKDTEYQLNRIILFDRLLKAYPYKKNQIWKEARVDIPPLMRGLTWAALLGVEGAIHAKYDAIDKDTPIPTDRQIEVDIPRCHQYDELLSSPEGHAKFRRVLKAWVVSHPDLVYWQGLDSLCAPFLYLNFNNEALAYACMSAFIPKYLYNFFLKDNSHVIQEYLTVFSQMIAFHDPELSNHLNEIGFIPDLYAIPWFLTMFTHVFPLHKIFHLWDTLLLGNSSFPFCIGVAILQQLRDRLLANGFNECILLFSDLPEIDIERCVRESINLFCWTPKSATYRQHAQPPKPSSDSSGGRSSAPYFSAECPDPPKTDLSRESIPLNDLKSEVSPRISAEDLIDLCELTVTGHFKTPSKKTKSSKPKLLVVDIRNSEDFIRGHISGSINIPFSAAFTAEGELTQGPYTAMLQNFKGKVIVIVGHVAKHTAEFAAHLVKMKYPRICILDGGINKIKPTGLLTIPSPQI [TBCK]
- solubility in G1/S (log2) [1]: -0.278
- solubility change mitosis (log2) [2]: -0.162

Substance: MSRRPCSCALRPPRCSCSASPSAVTAAGRPRPSDSCKEESSTLSVKMKCDFNCNHVHSGLKLVKPDDIGRLVSYTPAYLEGSCKDCIKDYERLSCIGSPIVSPRIVQLETESKRLHNKENQHVQQTLNSTNEIEALETSRLYEDSGYSSFSLQSGLSEHEEGSLLEENFGDSLQSCLLQIQSPDQYPNKNLLPVLHFEKVVCSTLKKNAKRNPKVDREMLKEIIARGNFRLQNIIGRKMGLECVDILSELFRRGLRHVLATILAQLSDMDLINVSKVSTTWKKILEDDKGAFQLYSKAIQRVTENNNKFSPHASTREYVMFRTPLASVQKSAAQTSLKKDAQTKLSNQGDQKGSTYSRHNEFSEVAKTLKKNESLKACIRCNSPAKYDCYLQRATCKREGCGFDYCTKCLCNYHTTKDCSDGKLLKASCKIGPLPGTKKSKKNLRRL [FBXO5]
- solubility in G1/S (log2) [1]: 0.273
- solubility change mitosis (log2) [2]: 0.249

Substance: MVARRRKCAARDPEDRIPSPLGYAAIPIKFSEKQQASHYLYVRAHGVRQGTKSTWPQKRTLFVLNVPPYCTEESLSRLLSTCGLVQSVELQEKPDLAESPKESRSKFFHPKPVPGFQVAYVVFQKPSGVSAALALKGPLLVSTESHPVKSGIHKWISDYADSVPDPEALRVEVDTFMEAYDQKIAEEEAKAKEEEGVPDEEGWVKVTRRGRRPVLPRTEAASLRVLERERRKRSRKELLNFYAWQHRESKMEHLAQLRKKFEEDKQRIELLRAQRKFRPY [RRP7A]
- solubility in G1/S (log2) [1]: -1.58
- solubility change mitosis (log2) [2]: 1.02

Substance: MSRKISKESKKVNISSSLESEDISLETTVPTDDISSSEEREGKVRITRQLIERKELLHNIQLLKIELSQKTMMIDNLKVDYLTKIEELEEKLNDALHQKQLLTLRLDNQLAFQQKDASKYQELMKQEMETILLRQKQLEETNLQLREKAGDVRRNLRDFELTEEQYIKLKAFPEDQLSIPEYVSVRFYELVNPLRKEICELQVKKNILAEELSTNKNQLKQLTETYEEDRKNYSEVQIRCQRLALELADTKQLIQQGDYRQENYDKVKSERDALEQEVIELRRKHEILEASHMIQTKERSELSKEVVTLEQTVTLLQKDKEYLNRQNMELSVRCAHEEDRLERLQAQLEESKKAREEMYEKYVASRDHYKTEYENKLHDELEQIRLKTNQEIDQLRNASREMYERENRNLREARDNAVAEKERAVMAEKDALEKHDQLLDRYRELQLSTESKVTEFLHQSKLKSFESERVQLLQEETARNLTQCQLECEKYQKKLEVLTKEFYSLQASSEKRITELQAQNSEHQARLDIYEKLEKELDEIIMQTAEIENEDEAERVLFSYGYGANVPTTAKRRLKQSVHLARRVLQLEKQNSLILKDLEHRKDQVTQLSQELDRANSLLNQTQQPYRYLIESVRQRDSKIDSLTESIAQLEKDVSNLNKEKSALLQTKNQMALDLEQLLNHREELAAMKQILVKMHSKHSENSLLLTKTEPKHVTENQKSKTLNVPKEHEDNIFTPKPTLFTKKEAPEWSKKQKMKT [PIBF1]
- solubility in G1/S (log2) [1]: 0.069
- solubility change mitosis (log2) [2]: 0.297

Substance: MLARALLLCAVLALSHTANPCCSHPCQNRGVCMSVGFDQYKCDCTRTGFYGENCSTPEFLTRIKLFLKPTPNTVHYILTHFKGFWNVVNNIPFLRNAIMSYVLTSRSHLIDSPPTYNADYGYKSWEAFSNLSYYTRALPPVPDDCPTPLGVKGKKQLPDSNEIVEKLLLRRKFIPDPQGSNMMFAFFAQHFTHQFFKTDHKRGPAFTNGLGHGVDLNHIYGETLARQRKLRLFKDGKMKYQIIDGEMYPPTVKDTQAEMIYPPQVPEHLRFAVGQEVFGLVPGLMMYATIWLREHNRVCDVLKQEHPEWGDEQLFQTSRLILIGETIKIVIEDYVQHLSGYHFKLKFDPELLFNKQFQYQNRIAAEFNTLYHWHPLLPDTFQIHDQKYNYQQFIYNNSILLEHGITQFVESFTRQIAGRVAGGRNVPPAVQKVSQASIDQSRQMKYQSFNEYRKRFMLKPYESFEELTGEKEMSAELEALYGDIDAVELYPALLVEKPRPDAIFGETMVEVGAPFSLKGLMGNVICSPAYWKPSTFGGEVGFQIINTASIQSLICNNVKGCPFTSFSVPDPELIKTVTINASSSRSGLDDINPTVLLKERSTEL [PTGS2]
- solubility in G1/S (log2) [1]: 0.069
- solubility change mitosis (log2) [2]: -0.117

Substance: MRFMTLLFLTALAGALVCAYDPEAASAPGSGNPCHEASAAQKENAGEDPGLARQAPKPRKQRSSLLEKGLDGAKKAVGGLGKLGKDAVEDLESVGKGAVHDVKDVLDSVL [DCD]
- solubility in G1/S (log2) [1]: -1.49
- solubility change mitosis (log2) [2]: 1.24

Substance: MRLTPRALCSAAQAAWRENFPLCGRDVARWFPGHMAKGLKKMQSSLKLVDCIIEVHDARIPLSGRNPLFQETLGLKPHLLVLNKMDLADLTEQQKIMQHLEGEGLKNVIFTNCVKDENVKQIIPMVTELIGRSHRYHRKENLEYCIMVIGVPNVGKSSLINSLRRQHLRKGKATRVGGEPGITRAVMSKIQVSERPLMFLLDTPGVLAPRIESVETGLKLALCGTVLDHLVGEETMADYLLYTLNKHQRFGYVQHYGLGSACDNVERVLKSVAVKLGKTQKVKVLTGTGNVNIIQPNYPAAARDFLQTFRRGLLGSVMLDLDVLRGHPPAETLP [MTG1]
- solubility in G1/S (log2) [1]: 0.123
- solubility change mitosis (log2) [2]: -0.0796

Substance: MGDWMTVTDPGLSSESKTISQYTSETKMSPSSLYSQQVLCSSIPLSKNVHSFFSAFCTEDNIEQSISYLDQELTTFGFPSLYEESKGKETKRELNIVAVLNCMNELLVLQRKNLLAQENVETQNLKLGSDMDHLQSCYSKLKEQLETSRREMIGLQERDRQLQCKNRNLHQLLKNEKDEVQKLQNIIASRATQYNHDMKRKEREYNKLKERLHQLVMNKKDKKIAMDILNYVGRADGKRGSWRTGKTEARNEDEMYKILLNDYEYRQKQILMENAELKKVLQQMKKEMISLLSPQKKKPRERVDDSTGTVISDVEEDAGELSRESMWDLSCETVREQLTNSIRKQWRILKSHVEKLDNQVSKVHLEGFNDEDVISRQDHEQETEKLELEIQQCKEMIKTQQQLLQQQLATAYDDDTTSLLRDCYLLEEKERLKEEWSLFKEQKKNFERERRSFTEAAIRLGLERKAFEEERASWLKQQFLNMTTFDHQNSENVKLFSAFSGSSDWDNLIVHSRQPQKKPHSVSNGSPVCMSKLTKSLPASPSTSDFCQTRSCISEHSSINVLNITAEEIKPNQVGGECTNQKWSVASRPGSQEGCYSGCSLSYTNSHVEKDDLP [SSX2IP]
- solubility in G1/S (log2) [1]: -0.387
- solubility change mitosis (log2) [2]: 0.187

Substance: MASVSSATFSGHGARSLLQFLRLVGQLKRVPRTGWVYRNVQRPESVSDHMYRMAVMAMVIKDDRLNKDRCVRLALVHDMAECIVGDIAPADNIPKEEKHRREEEAMKQITQLLPEDLRKELYELWEEYETQSSAEAKFVKQLDQCEMILQASEYEDLEHKPGRLQDFYDSTAGKFNHPEIVQLVSELEAERSTNIAAAASEPHS [HDDC2]
- solubility in G1/S (log2) [1]: 0.452
- solubility change mitosis (log2) [2]: 0.118
